B1: TPR t1 (parent)
chain: GACCAAUCUGCCCUCAGAGCUCGAGAACAUCUUCGGAUGCAGAGGAGGCAGGCUUCGGUGGCGCGAUAGCGCCAACGUCCUCAACCUCCAAUGCAUCCCACCACAUGAUGAUGCCUGAAGAGCCUUGGUUUUUUG

Variants of: B1
Test: polymerase ribozyme fitness, log enrichment relative to wild type (log ratio); higher = more active; in vitro selection for triplet polymerase activity
How it was run: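 Both subunits of a heterodimeric triplet polymerase ribozyme were given their own mutant library, built by PCR and transcribed. Each library was annealed with a biotinylated primer, the partner subunit and triplets, incubated frozen at −7 °C, and its extended constructs gel-excised, captured on streptavidin beads and amplified by RT-PCR, all in one round done in triplicate. Fitness is the logarithm of genotype enrichment relative to wild-type enrichment, with replicates averaged by inverse-variance weighting. That logarithm is base 2, and Illumina-sequenced genotypes needed ≥10 input reads and ≥1 read per output.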

In order of rising “polymerase ribozyme fitness (log ratio)” value:
1. G58A C73A A84G A103G C124G  -7.11
2. C56G C64A U106C C114U  -6.98
3. C56U A66U G69U C80A A121C U130A  -6.49
4. G58C C73A C98G  -6.44
5. G57C C85G C114U A119C  -6.42
6. C56U C99A  -6.27
7. C56U G69A G113U C123G U130G  -6.22
8. C56U G60A C98U G117C C124U U130A  -6.06
9. U59A C70U C102A A105U A111G G128A U129A  -5.83
10. C56A C104G A118G C124G  -5.79
11. G58C C70U G110C A121U  -5.63
12. G57C C82G A95G A111U C123U  -5.52
13. G60A C62U C79G U106G  -5.51
14. C56G G69C A83C C104U  -5.43
15. G57C A90G G113U C115A  -5.11
16. U59C A103U U112C G128U U132A U133A  -5.05
17. G60A A103C A111C  -4.91
18. G60A C89A U116G  -4.84
19. C56U C79G C102U C104U  -4.64
20. U59G U92G G110A U133C  -4.4
21. C56A G71C  -4.4
22. G58A C88U C94U G127C G135U  -3.94
23. C56A U87G G113U  -3.92
24. G60A A108G G117A  -3.74
25. C56A G71A  -3.71
26. C56G G69A A119U  -3.54
27. C56U C99U  -3.34
28. C56A G61A A111G U125C  -2.99
29. U59C G71A G127C U132C  -2.94
30. G57U C79A G93C U112G  -2.9
31. C56A G128U  -2.53
32. G60A A118U U126A  -2.3
33. G57U G110A G127A  -2.29
34. G58A U81C C85G  -2.26
35. G58C A91U  -2.24
36. U59C C114A U130A  -2.23
37. C56U C72U U112G G117U C124U  -2.21
38. C56U U109C  -2.15
39. G58A G61A G93A G113C U125C G135A  -2.01
40. G60A A100U U129A  -2
41. C56G C72G U87G C98U  -1.99
42. C56U C80A  -1.98
43. G58A C85U  -1.88
44. G57A G69C  -1.82
45. G57U G63C  -1.73
46. C56U C114U  -1.71
47. U59G C85U G113A  -1.67
48. C56U G117U  -1.63
49. U59C G117A  -1.62
50. G57A A100U  -1.61
51. C56A G60A C101A  -1.49
52. G58U G69U C97A G120C  -1.35
53. C56U A100C  -1.29
54. C56U A95C  -1.26
55. U59A G77U U130G  -1.24
56. C56U C79A C101U  -1.23
57. C56A G58C C62U C101A C104U  -1.18
58. G60A C102A G120C U132C  -1.03
59. C56U G113A  -0.858
60. C56G A111C  -0.855
61. U59G C101U U131G U133A  -0.675
62. C56U C115U  -0.661
63. U59A C85A C94A G120A  -0.6
64. G58C U59C A83C U106A  -0.577
65. C56U U92C U106A  -0.561
66. U59A U87G  -0.319
67. U59A U87A  -0.298
68. C56U U131A  -0.176
69. G57C G69C U131A  -0.151
70. G57C U59A  -0.128
71. G58A U78G  0.00664
72. G60A C82A U106A G120A  0.0586
73. G58A G61A C85A G113A  0.19
74. C56A U132A  0.197
75. C56G A111G  0.245
76. C56U A95G  0.263
77. C56U C70U C82G C124A U130C  0.377
78. C56A U59C U87C U112A  0.408
79. G58A G61A G120A  0.579
80. U59A C101U C124A  1.59
81. C56G A121U  1.73
82. U59A C123G  2
83. G58A C123G  2.11
